These results are taken from publication PMC3726529 (Nature, 2013).

Data set [1] has as its target TrkA from Vibrio parahaemolyticus, co-expressed with TrkH (Vibrio parahaemolyticus). Kind of data set: crystal structure.
The target of data set [2] is T1, isolated TrkA (VpTrkA) (Vibrio parahaemolyticus, UniProt Q87KD2).
T1 sequence (Q87KD2 1-458): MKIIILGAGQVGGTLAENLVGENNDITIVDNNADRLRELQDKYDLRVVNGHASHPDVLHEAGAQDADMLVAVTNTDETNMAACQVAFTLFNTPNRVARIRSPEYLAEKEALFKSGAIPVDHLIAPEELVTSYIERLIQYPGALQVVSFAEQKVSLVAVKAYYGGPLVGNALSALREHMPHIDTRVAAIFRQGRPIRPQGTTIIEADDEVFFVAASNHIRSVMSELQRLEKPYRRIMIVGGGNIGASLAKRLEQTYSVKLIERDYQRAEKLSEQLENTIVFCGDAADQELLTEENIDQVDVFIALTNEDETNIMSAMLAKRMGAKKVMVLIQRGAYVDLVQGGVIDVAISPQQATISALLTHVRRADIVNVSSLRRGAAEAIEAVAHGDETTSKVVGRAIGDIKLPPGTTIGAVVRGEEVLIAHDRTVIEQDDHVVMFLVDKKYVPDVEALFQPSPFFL
Kind of data set: co-crystal structure, […] Å. The settings on record: 10 mM ATPγS; GXGXXG motif in the N lobe of each RCK domain. Format: binding.

The target of data set [3] is isolated TrkA from Vibrio parahaemolyticus (Vibrio parahaemolyticus).
Data set [4] concerns the molecule itself. The experiment in a line: crystal structure.

By stoichiometry N is commonly meant the number of molecules, sites or subunits per partner or assembly. Take “TrkA from Vibrio parahaemolyticus, co-expressed with TrkH (natural protein)”: the stoichiometry N in data set [1] turned out to be 4.
In the case of `Nc1ncnc2c1ncn2[C@@H]1O[C@H](COP(=O)(O)OP(=O)(O)OP(O)(O)=S)[C@@H](O)[C@H]1O` [ATPγS, adenosine 5′-O-(3-thiotriphosphate)], in data set [2], the “co-crystal structure, 3.05 Å” value is given as “Each protomer contains two large densities consistent with ATPγS molecules”.
Turning to “isolated TrkA from Vibrio parahaemolyticus (natural protein)”, the stoichiometry N in data set [3] came to 4.

B1: TrkH from Vibrio parahaemolyticus (natural protein)
chain: MQFRSIIRIVGLLLALFSVTMLAPALVALLYRDGAGVPFVTTFFVLLFCGAMCWFPNRRHKHELKSRDGFLIVVLFWTVLGSAGSLPFLIADNPNISVTDAFFESFSALTTTGATVIVGLDELPKAILFYRQFLQWFGGMGIIVLAVAILPVLGIGGMQLYRAEIPGPVKDTKMTPRIAETAKALWYIYLSLTIACAVAFWLAGMTPFDAISHSFSTIAIGGFSTHDASMGYFDSYAINLITVVFLLISACNFTLHFAAFASGGVHPKYYWKDPEFRAFIFIQVLLFLVCFLLLLKHHSYTSPYDAFDQALFQTVSISTTAGFTTTGFADWPLFLPVLLLFSSFIGGCAGSTGGGMKVIRILLLTLQGARELKRLVHPRAVYTIKVGGSALPQRVVDAVWGFFSAYALVFVVCMLGLIATGMDELSAFSAVAATLNNLGPGLGEVALHFGDVNDKAKWVLIVSMLFGRLEIFTLLILLTPTFWRS
Turning to B1, in data set [4], the “stoichiometry N” value came out at 2.
